Reference: CN106632674A

Experiments:
[1] = biological target: PD-1ECD-TEV-mFc融合蛋白 (human); test: indirect ELISA, coated PD-1 Fc fusion (mFc form assumed for 5C4), run together with 6F5 and 6F5(Re)
[2] = biological target: PD-1ECD-TEV-hFc融合蛋白 (human); test: competition ELISA, antibody titrated from 1.5 ug/ml against PDL-1 Fc fusion (2 ug/ml; PDL-1-mFc assumed) on coated PD-1 Fc fusion (PD-1-hFc assumed)
[3] = biological target: PD-1ECD-TEV-mFc融合蛋白 (human); test: indirect ELISA, coated PD-1 Fc fusion (mFc form assumed for 5C4), run together with 6F5H1L1 and 6F5H2L2

Sequence of PD-1ECD-TEV-mFc融合蛋白 (human) (main, as listed by the source, form in doubt): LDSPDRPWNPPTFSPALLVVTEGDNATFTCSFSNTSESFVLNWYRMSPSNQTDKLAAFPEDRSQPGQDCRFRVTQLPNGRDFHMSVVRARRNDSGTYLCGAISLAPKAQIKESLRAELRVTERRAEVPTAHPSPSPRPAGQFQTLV
Sequence of PD-1ECD-TEV-hFc融合蛋白 (human) (main, as listed by the source, form in doubt): as above

EC50 [1]: 0.199 nM
EC50 [2]: 1.46 nM
EC50 [3]: 0.233 nM
Substance: 阳性对照抗体5C4 (antibody)
